{"source": "patent US20030165811A1", "about": "“Method for determining the activity of ornithine decarboxylase and for identifying effectors of ornithine decarboxylase activity” (priority 2001, published 2003)", "molecules": {"B1": {"name": "antizyme 2: human ODC antizyme 2 (Acc. No. AF057297), expressed in yeast from plasmid (protein, UniProt O95190 1-189, looked up)", "Ornithine decarboxylase …": "MINTQDSSILPLSNCPQLQCCRHIVPGPLWCSDAPHPLSKIPGGRGGGRDPSLSALIYKDEKLTVTQDLPVNDGKPHIVHFQYEVTEVKVSSWDAVLSSQSLFVEIPDGLLADGSKEGLLALLEFAEEKMKVNYVFICFRKGREDRAPLLKTFSFLGFEIVRPGHPCVPSRPDVMFMVYPLDQNLSDED"}, "B2": {"name": "antizyme 3: human ODC antizyme 3 (Acc. No. AF175296), expressed in yeast from plasmid (protein, UniProt Q9UMX2 1-235, looked up)", "Ornithine decarboxylase …": "MPCKRCRPSVYSLSYIKRGKTRNYLYPIWSPYAYYLYCYKYRITLREKMLPRCYKSITYKEEEDLTLQPRSCLQCSESLVGLQEGKSTEQGNHDQLKELYSAGNLTVLATDPLLHQDPVQLDFHFRLTSQTSAHWHGLLCDRRLFLDIPYQALDQGNRESLTATLEYVEEKTNVDSVFVNFQNDRNDRGALLRAFSYMGFEVVRPDHPALPPLDNVIFMVYPLERDVGHLPSEPP"}, "B3": {"name": "antizyme inhibitor: human antizyme inhibitor, binds antizyme and releases ODC; full-length clone from human liver cDNA, expressed in yeast (protein, UniProt O14977 1-448, looked up)", "chain": "MKGFIDDANYSVGLLDEGTNLGNVIDNYVYEHTLTGKNAFFVGDLGKIVKKHSQWQNVVAQIKPFYTVKCNSAPAVLEILAALGTGFACSSKNEMALVQELGVPPENIIYISPCKQVSQIKYAAKVGVNILTCDNEIELKKIARNHPNAKVLLHIATEDNIGGEEGNMKFGTTLKNCRHLLECAKELDVQIIGVKFHVSSACKESQVYVHALSDARCVFDMAGEIGFTMNMLDIGGGFTGTEFQLEEVNHVISPLLDIYFPEGSGVKIISEPGSYYVSSAFTLAVNIIAKKVVENDKFPSGVEKTGSDEPAFMYYMNDGVYGSFASKLSEDLNTIPEVHKKYKEDEPLFTSSLWGPSCDELDQIVESCLLPELNVGDWLIFDNMGADSFHEPSAFNDFQRPAIYYMMSFSDWYEMQDAGITSDSMMKNFFFVPSCIQLSQEDSFSAEA", "modifications": "full-length", "notes": "full-length clone from human liver cDNA, expressed in yeast"}}, "key": {"[1]": {"system": "ornithine decarboxylase (ODC)", "sequence (P11926 whole entry)": "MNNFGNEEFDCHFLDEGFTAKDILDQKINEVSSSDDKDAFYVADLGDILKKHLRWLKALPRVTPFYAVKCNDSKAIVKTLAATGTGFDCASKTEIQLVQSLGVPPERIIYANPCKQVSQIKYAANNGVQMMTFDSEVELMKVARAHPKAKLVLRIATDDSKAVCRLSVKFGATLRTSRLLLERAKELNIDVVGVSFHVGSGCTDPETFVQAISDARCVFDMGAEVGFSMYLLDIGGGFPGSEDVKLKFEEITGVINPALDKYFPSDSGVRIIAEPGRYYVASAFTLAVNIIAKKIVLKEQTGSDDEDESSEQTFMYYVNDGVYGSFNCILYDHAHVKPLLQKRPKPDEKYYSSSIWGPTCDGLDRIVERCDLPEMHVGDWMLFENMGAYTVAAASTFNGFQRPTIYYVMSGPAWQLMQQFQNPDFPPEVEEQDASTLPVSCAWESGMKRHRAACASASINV", "assay": "Antizyme assay: spot test growth of ODC-knockout yeast complemented with human ODC on polyamine-free medium", "type": "cell-based", "conditions": "for inhibition of ODC activity (growth inhibition of the yeast cells): antizyme expressed from yeast promoters ADH, GaI1 or GPD in Y15034 with p413GaIL-ODC, PFSC plate, 30° C.", "experimental": "The polyamine-dependent yeast strain Y15034 (ODC-knockout) and the corresponding wild-type strain Y10000 were each transformed by the Li acetate method with the plasmid p413GaIL-ODC. In addition, each of the 12 antizyme expression plasmids described in Example 2 and, as control, corresponding blank plasmids were cotransformed.\nThe transformants were plated out on Synthetic Complete (SC) medium (His-, Ura-,2% glucose, Difco). For each transformation, an overnight culture was inoculated in PFSC medium (His-, Ura-, 2% glucose). This was used firstly to carry out a spot test, i.e. the yeasts were adjusted to OD600 3.0 and subjected to 10-fold dilutions (5×). 2 μl of each dilution, starting with OD600 3.0, were placed as a drop on a PFSC plate (His-, Ura-, 2% galactose/raffinose [1:1]), and the plates were incubated at 30° C."}, "antizyme": {"system": "antizyme", "assay": "Antizyme inhibitor assay: spot test growth of yeast co-expressing ODC, antizyme and AZI on polyamine-free medium", "type": "cell-based, human", "conditions": "AZI expressed from ADH, GaIL or GPD promoter (p415); PFSC plate, 30° C.", "experimental": "The yeasts prepared in Example 6 were each additionally cotransformed with the 3 AZI expression plasmids (p415ADH-AZI, p415GaIL-AZI and p415GPD-AZI) described in Example 3 and with the corresponding blank plasmids.\nThe transformants were plated out on Synthetic Complete (SC) medium (His-, Ura-,Leu-, 2% glucose). For each transformation, an overnight culture was inoculated in PFSC medium (His-, Ura-, Leu-, 2% glucose). This was used firstly to carry out a spot test, i.e. the yeasts were adjusted to OD600 3.0 and subjected to 10-fold dilutions (5×). 2 μl of each dilution, starting with an OD600 3.0 were placed as a drop on a PFSC plate (His-, Ura-, Leu-, 2% galactose/raffinose [1:1]), and the plates were incubated at 30° C."}}, "data": [{"molecule": "NCCCCN", "note": "[putrescine, reference compound]", "values": [{"measurement": "abolition of the antizyme-related growth inhibition", "setting": "[1]; addition of putrescine to polyamine-free medium", "result": "abolish the growth inhibition"}]}, {"molecule": "Antizyme 1: human ODC antizyme 1 (Acc. No. D87914), protein that binds and inhibits ODC, expressed in yeast from plasmid", "values": [{"measurement": "inhibition of ODC activity (growth inhibition of the yeast cells)", "setting": "[1]", "result": "achieved inhibition of ODC activity only with the strong GPD promoter"}]}, {"molecule": "B1", "values": [{"measurement": "inhibition of ODC activity (growth inhibition of the yeast cells)", "setting": "[1]", "result": "effective inhibition of ODC activity was made possible also by the ADH promoter"}]}, {"molecule": "B2", "values": [{"measurement": "inhibition of ODC activity (growth inhibition of the yeast cells)", "setting": "[1]", "result": "also by the GaI1 promoter"}]}, {"molecule": "B3", "values": [{"measurement": "abolition of the ODC inhibition caused by antizyme", "setting": "antizyme", "result": "the ODC inhibition caused by antizyme was abolished"}]}]}
